Measured values reported in CN117624356A (VAZYME MEDICAL CO LTD; HUNAN NOVAZYME MEDICAL TECH CO LTD, dated 2024).

T1: NfL-His重组蛋白 (神经丝轻链蛋白, Neurofilament light chain) (Homo sapiens (Human), UniProt P07196 1-543)
T1 construct: Recombinant, expressed in 293F cells, C-terminal His tag; used as immunogen, sorting antigen and screening antigen; also called NfL-His蛋白
T1 sequence: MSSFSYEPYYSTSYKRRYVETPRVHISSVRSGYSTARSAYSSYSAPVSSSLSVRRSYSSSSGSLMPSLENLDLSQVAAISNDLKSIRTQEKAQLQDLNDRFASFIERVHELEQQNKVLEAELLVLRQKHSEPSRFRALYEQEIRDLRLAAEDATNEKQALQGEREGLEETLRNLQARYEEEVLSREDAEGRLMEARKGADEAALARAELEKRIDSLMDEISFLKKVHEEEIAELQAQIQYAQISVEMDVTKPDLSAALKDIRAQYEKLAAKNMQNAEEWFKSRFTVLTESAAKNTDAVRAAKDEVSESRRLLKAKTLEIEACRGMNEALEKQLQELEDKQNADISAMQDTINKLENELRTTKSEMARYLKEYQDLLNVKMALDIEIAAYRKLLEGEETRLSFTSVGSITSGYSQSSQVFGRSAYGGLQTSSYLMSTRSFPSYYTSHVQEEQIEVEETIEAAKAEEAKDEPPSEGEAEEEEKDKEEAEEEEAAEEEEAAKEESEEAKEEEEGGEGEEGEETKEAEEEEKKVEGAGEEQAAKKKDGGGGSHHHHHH


What was measured:
[1] = biological target: T1, NfL-His重组蛋白 (神经丝轻链蛋白, Neurofilament …); assay: sandwich chemiluminescence, NfL at 10000pg/mL, Rabbit anti-NfL mAb on beads as capture, acridinium ester labelled antibody as detection
[2] = biological target: T1, NfL-His重组蛋白 (神经丝轻链蛋白, Neurofilament …); assay: sandwich ELISA, fixed antibody of the pair

Row | binding result [1] | binding result [2] | Binder
1 | binds |  | Anti-NfL-rRmab-1 (antibody, V domains shown, Labelled with acridinium ester as the detection antibody in the chemiluminescence assay; also called NfL特异性抗体; 优选抗体) VH: QSVEESGGRLVTPGTPLTLTCTASGFSLSIHDMSWVRQAPGKGLEWIGLISSNNNTYYASWAKGRFTISKTSTTVDLKITSPTTEDTATYFCARGGFSTDLWGPGTPVTVSS VL: DVVMTQTPASVSEPVGGTVTIKCQASQSIYTYLSWYQQKPGQPPKLLIYGASNLASGVSSRFKGSGSGTDYTLTISGVQCDDAATYYCQCTYFSSSYVGGFGGGTEVVVK
2 |  | binds | Rabbit anti-NfL mAb (antibody, V domains shown, Rabbit monoclonal antibody developed earlier by the applicant; Used as the fixed capture antibody (coupled to magnetic beads in the chemiluminescence assay); also called 包被抗体; 配对抗体) VH: QSVEESGGRLVTPGTPLTLTCTASGIDLSNYAMNWVHQAPGKGLEWIAIIYASGSTYYTTWAKGRFTISKTSSTTVDLKITSPTTEDTATYFCARALSMTNVYTFNIWGPGTLVTVSS VL: DVVMTQTPASVSEPVGGTVTIKCQASQNIYNNLAWYQQKPGQPPKLLIYKASTLASGVSSRFKGSGSGTEFTLTISDLECADAATYYCQCTYGSSYVAFGGGTEVVVK
